± gives the standard deviation.
Assay: protein stability index of a GFP-peptide fusion (GPS, HEK-293T) (PSI 1-6); higher = more stable
[1] = treatment: DMSO, c terminus: a fixed tail appended
[2] = treatment: MLN4924 1 uM, 8 h, c terminus: a fixed tail appended
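Also: 24-mer peptide tiles fused after GFP, lentivirally expressed, FACS-sorted into six equal bins by GFP/DsRed ratio, decoded by Illumina sequencing, PSI is the read-weighted mean bin number.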

| Sequence | protein stability index [1] | protein stability index [2] | protein stability index (treatment: DMSO, c terminus: native) | protein stability index (treatment: MLN4924 1 uM, 8 h, c terminus: native) |
| --- | --- | --- | --- | --- |
| NVQILLPVGEPVTNVRLQPAATWN [FCHO1] | 2.32 ± 0.22 | 2.44 ± 0.19 |  |  |
| NYLFMGDYVDRGYYSVETVTLLVA [PPP2CA] | 2.71 ± 0.6 | 2.82 ± 0.56 |  |  |
| NYQVFQKVTDHATTALLHYQLPQM [MED27] | 2.52 ± 0.21 | 2.25 ± 0.24 |  |  |
| PAGAGPSPTFPALGIGMDSCVIPL [SEPHS2] | 3.14 ± 0.43 | 3.26 ± 0.34 |  |  |
| PAGKTPVPAGEEEGELGEYRQKLL [VPS39] | 5.29 ± 0.32 | 5.45 ± 0.2 |  |  |
| PALDSLAYEYEREGLYEQAFQLLR [TRADD] | 2.64 ± 0.15 | 2.9 ± 0.29 |  |  |
| PANLYVRELREVRRVPPRFSIPPT [PTPRD] | 2.95 ± 0.2 | 3.05 ± 0.41 |  |  |
| PAPAFQPFFFTGAFPFNMQELVLK [ANKRD40] | 2.07 ± 0.82 | 2.77 ± 1.2 |  |  |
| PAPSPAKEERKTEVVMNSQQTPVG [PALM] | 5.52 ± 0.19 | 5.46 ± 0.13 |  |  |
| PASPERDYSPYYKTIEELRDKILT [KRT13] | 3.349 ± 0.006 | 3.45 ± 0.31 |  |  |
| PATTVTSPNSTPAKTIDTSPPVDL [SNAP91] | 5.25 ± 0.23 | 5.25 ± 0.19 |  |  |
| PCLCLSWEEAQSPANCPACREPSP [TRIM43] | 4.74 ± 0.24 | 4.79 ± 0.15 |  |  |
| PCSKAVMSQALKATFSGFKKEQRR [ETS2] | 3.15 ± 0.21 | 3.27 ± 0.28 |  |  |
| PDPGPSPEASHLRFRRFRFQEAAG [ZNF263] | 3.16 ± 0.13 | 3.23 ± 0.31 |  |  |
| PEASDQEEHLSPLDFLHSANFSLG [RNF180] | 4.66 ± 0.17 | 4.64 ± 0.36 |  |  |
| PEGSVSGSQPNSGLALESSSGLQD [NFE2L1] | 5.46 ± 0.2 | 5.51 ± 0.13 |  |  |
| PEKIGTRFLLYTNENPNNFQILLL [PNLIPRP1] | 2.26 ± 0.46 | 2.48 ± 0.46 |  |  |
| PELLVGDTQYGSSVDIWAIGCVFA [CDKL4] | 2.14 ± 0.57 | 2.73 ± 0.98 |  |  |
| PETVRMVLSNMEKLFCIPVHGIRS [IMPA1] | 2.65 ± 0.27 | 2.94 ± 0.3 |  |  |
| PFKAYLDVDITLSSEAFHNYMNAA [RTN3] | 2.92 ± 0.44 | 2.71 ± 0.72 |  |  |
| PGPSWVRGSGPSVLSRLQDAAVVR [ALKBH7] | 3.58 ± 0.37 | 3.78 ± 0.23 |  |  |
| PGSSSGPVLGSSSGAGHGSGSGSG [SPAG8] | 4.87 ± 0.29 | 5.14 ± 0.18 |  |  |
| PHGTLRVCTISSTGPLQPQPKKPE [PKD2L1] | 4.42 ± 0.27 | 4.5 ± 0.3 |  |  |

| Sequence | protein stability index [1] | protein stability index [2] | protein stability index (treatment: DMSO, c terminus: native) | protein stability index (treatment: MLN4924 1 uM, 8 h, c terminus: native) |
| --- | --- | --- | --- | --- |
| PHPDLPAEEKEQLLHNDEYQETMV [USP39] | 5.35 ± 0.24 | 5.55 ± 0.21 |  |  |
| PIKLELLEPKANLQAALQVLELHH [VPS39] | 2.36 ± 0.41 | 2.41 ± 0.22 |  |  |
| PILKRLERPQDRDTPVQNKRRRSV [CDC25B] | 5.03 ± 0.49 | 5.11 ± 0.16 |  |  |
| PKEQLSTSFQWVTKWVDYSNKYGF [PLK2] | 2.29 ± 0.45 | 2.46 ± 0.48 |  |  |
| PKKLLNPVKASRSHQELHRELLMN [FAM107A] | 3.17 ± 0.21 | 3.19 ± 0.29 |  |  |
| PLDDALLSFAHANCTLIISYQKPK [DPCD] | 2.17 ± 0.2 | 2.22 ± 0.21 |  |  |
| PLLKLACTNTYVTGLSMIANGGAI [OR4A15] | 2.15 ± 0.58 | 2.21 ± 0.72 |  |  |
| PLPESLASLHPSVSPGSPPPPLPN [PLAGL1] | 5.01 ± 0.27 | 4.95 ± 0.16 |  |  |
| PLSDDHDEKYGVPSLEELGFDTDG [CRY1] | 5.58 ± 0.18 | 5.62 ± 0.18 |  |  |
| PLSKSSPATTVTSPNSTPAKTIDT [SNAP91] | 5.18 ± 0.19 | 5.18 ± 0.12 |  |  |
| PLSSDIQVITQTGVPGQPLNFKAE [PTPRD] | 4.66 ± 0.17 | 4.51 ± 0.26 |  |  |
| PLVYKAIQQGINAVNQEAMNNAQR [ACSBG2] | 3.331 ± 0.031 | 3.45 ± 0.23 |  |  |
| PNPGFSMLDFLSERPWIKRMIFKL [APMAP] | 2.05 ± 0.2 | 2.36 ± 0.66 |  |  |
| PPEQGKIFIARRSLLDELLEVDHI [SOAT1] | 2.76 ± 0.2 | 2.93 ± 0.32 |  |  |
| PPPLDQYVKFDAVSGDYYPIIYFN [CLPTM1] | 2.32 ± 0.14 | 2.37 ± 0.44 |  |  |
| PPRGAVERHSDLPPLNPTSWWADL [SPNS1] | 3.28 ± 0.29 | 3.34 ± 0.29 |  |  |
| PPRKSGSFHSSGEKQKQPRWREGT [PBXIP1] | 4.4 ± 0.068 | 4.38 ± 0.3 |  |  |
| PSAILRTPESTKPGPVCQPPVSQS [ANKRD40] | 4.59 ± 0.23 | 4.45 ± 0.18 |  |  |
| PSLGRVLPDPREACGSSSYVASIV [RBMY1A1] | 2.63 ± 0.36 | 2.94 ± 0.21 |  |  |
| PSLPSCLCSFLLLLLLQVSSSYAG [MOG] | 2.44 ± 0.048 | 2.77 ± 0.34 |  |  |
| PSNKAPLLVLCEDHRGRMVKHQCC [EHMT1] | 3.13 ± 0.27 | 3.37 ± 0.34 |  |  |
| PSPAPAVAAAAAATTAATAAATTT [SNAP91] | 5.33 ± 0.31 | 5.39 ± 0.17 |  |  |
| PSVIQEIHQESGKAPSTDDATWAA [C10orf62] | 4.29 ± 0.33 | 4.66 ± 0.34 |  |  |

| Sequence | protein stability index [1] | protein stability index [2] | protein stability index (treatment: DMSO, c terminus: native) | protein stability index (treatment: MLN4924 1 uM, 8 h, c terminus: native) |
| --- | --- | --- | --- | --- |
| PSYKVKVTGLNPKTKYILLMDIVP [TBX5] | 2.73 ± 0.28 | 2.83 ± 0.49 |  |  |
| PTELWPQEAVPLGLGLEDADWTQG [TEX19] | 4.56 ± 0.22 | 4.59 ± 0.22 |  |  |
| PTGEGSISHEEQKSVRLARELESR [CHCHD6] | 5.33 ± 0.17 | 5.35 ± 0.33 |  |  |
| PTGLLALQQIADFMTTNVPNVYPA [ADD1] | 2.1 ± 0.47 | 2.14 ± 0.25 |  |  |
| PTVPSAATSQPTPSQHSAHTSSQP [CCDC6] | 5.21 ± 0.13 | 5.22 ± 0.27 |  |  |
| PVGFGRRTDPNGDYIRRYLPVLRG [CRY1] | 3.14 ± 0.2 | 3.17 ± 0.39 |  |  |
| PVRAAASSPVTTLTQTMHDLAGLG [CDC25B] | 4.03 ± 0.24 | 3.93 ± 0.19 |  |  |
| PYIPPHAALCLEVTLKTAVDGPDL [FKBP8] | 2.32 ± 0.41 | 2.23 ± 0.2 |  |  |
| PYLRFGCLSCRLFYFKLTDLYKKV [CRY1] | 2.55 ± 0.45 | 2.32 ± 0.38 |  |  |
| PYTEKPRLWHTACASDEGEVIVFG [KLHDC2] | 2.51 ± 0.21 | 2.86 ± 0.23 |  |  |
| QAIDHGCEHICVNSDDSYTCECLE [MATN2] | 5.43 ± 0.098 | 5.14 ± 0.28 |  |  |
| QAKTHTDSSEKELEPEAAEEALEN [ACBD3] | 5.52 ± 0.2 | 5.65 ± 0.24 |  |  |
| QALGIPATECEFVGSLPVIVVGRL [LPCAT4] | 2.38 ± 0.58 | 2.29 ± 0.66 |  |  |
| QALLDVKNIAHQNKFGEDMPHPH [HDAC6] |  |  | 4.99 ± 0.18 | 5.08 ± 0.12 |
| QAPIAAVLLMHMPAEQAFWCLVQI [TBC1D10A] | 3.25 ± 0.93 | 3.06 ± 0.31 |  |  |
| QAWFGFAGTPGYLSPEVLRKDPYG [CAMK2D] | 2.86 ± 0.79 | 2.94 ± 0.39 |  |  |
| QCLEDLVNHYSEVADGLCCVLTTP [SLA] | 2.11 ± 0.39 | 2.27 ± 0.36 |  |  |
| QDDISSSYTTTTTITAPPSRVLQN [SCD] | 4.71 ± 0.3 | 4.89 ± 0.3 |  |  |
| QEANARERNRMHGLNDALDNLRKV [NEUROD6] | 4.55 ± 0.14 | 4.56 ± 0.23 |  |  |
| QECPPDGRSFREEQCVSFNSHVYN [ADAMTSL2] | 4.08 ± 0.11 | 3.91 ± 0.2 |  |  |
| QEIIKTTEQLIEAVNNGDFEAYAK [CAMK2B] | 4.27 ± 0.17 | 4.26 ± 0.15 |  |  |
| QENEEKEQVANKGEPLALPLDAGE [BEX1] | 5.59 ± 0.27 | 5.48 ± 0.56 |  |  |
| QERPRPEPGRLGSSSPASVTTEQL [PXN] | 5.29 ± 0.3 | 5.12 ± 0.39 |  |  |

| Sequence | protein stability index [1] | protein stability index [2] | protein stability index (treatment: DMSO, c terminus: native) | protein stability index (treatment: MLN4924 1 uM, 8 h, c terminus: native) |
| --- | --- | --- | --- | --- |
| QESDQTEEHESGIEQFSESHAIHV [IQUB] | 5.34 ± 0.18 | 5.45 ± 0.22 |  |  |
| QETRGELQCRSPPRLHGAKAILDA [TBC1D10A] | 4.55 ± 0.27 | 4.62 ± 0.12 |  |  |
| QETVLVEERRVVHASGDASYSAGD [EPB41L3] | 5.28 ± 0.2 | 5.38 ± 0.24 |  |  |
| QEYQLPYQRVLPLPIFTPAKMGAT [TCAP] | 3.01 ± 0.35 | 3.09 ± 0.18 |  |  |
| QFRVVRCWKMLSPGFDSSVYSDLC [ADAMTSL2] | 2.5 ± 1 | 2.32 ± 0.45 |  |  |
| QGEYSRKLEERFMTLAANHELMLR [CCDC89] | 3.15 ± 0.18 | 3.18 ± 0.25 |  |  |
| QHRKINPKNREYDRFYVINYLVRL [ZNF277] | 3.16 ± 1.1 | 2.29 ± 0.64 |  |  |
| QKPRGLEGGVLRGSKLEKGHLRGP [ZSWIM9] | 3.98 ± 0.63 | 3.82 ± 0.54 |  |  |
| QLELVILQSEPHRAGVQWKFAGSF [KCNK9] | 2.7 ± 0.54 | 2.59 ± 0.44 |  |  |
| QLIDNILEESDIDRDGTINLSEFQ [CIB1] | 3.69 ± 0.35 | 3.89 ± 0.26 |  |  |
| QLKACTNFDDILNVCDDYDVTCNE [KCNG1] | 4.42 ± 0.16 | 4.63 ± 0.085 |  |  |
| QLYMEQFTKANFWYQPSFHGVDLS [CARM1] | 2.42 ± 0.71 | 2.48 ± 0.31 |  |  |
| QNDNAPEILYPALPTDGSTGVELA [PCDHGA10] | 4.84 ± 0.39 | 5.2 ± 0.18 |  |  |
| QPASELLQDVRVNQSRCEMKTFVS [TRIM15] | 2.98 ± 0.48 | 3.25 ± 0.41 |  |  |
| QQHSDKTSLQGLTGTPLVAGSPIR [ISL2] | 4.2 ± 0.21 | 4.39 ± 0.13 |  |  |
| QQRPHPRSHSREPRAERKCPRIAP [ELOA2] | 4.49 ± 0.46 | 4.53 ± 0.071 |  |  |
| QRQAIKGAFYRRAQRLRPQDEPRQ [KCNG1] | 3.87 ± 0.24 | 4.16 ± 0.22 |  |  |
| QRVLFSGSSDHSVIMWDIGGRKGT [WDFY2] | 2.8 ± 0.43 | 2.94 ± 0.14 |  |  |
| QSEHTMVLRCQLSAEEVRFPVSVT [C2CD2L] | 2.64 ± 0.33 | 2.49 ± 0.42 |  |  |
| QSEPSEQDGVLDLSTKKSPCAGST [LCOR] | 5.39 ± 0.22 | 5.46 ± 0.29 |  |  |

From the supplement of paper PMC10567573
